From patent publication US20230125550A1 (ARCELLX, published 2023) come the findings set out here.

In one assay the target is T1, AFP p26 (human, UniProt P02771 381-609).
T1 construct: The construct used is not described
T1 sequence: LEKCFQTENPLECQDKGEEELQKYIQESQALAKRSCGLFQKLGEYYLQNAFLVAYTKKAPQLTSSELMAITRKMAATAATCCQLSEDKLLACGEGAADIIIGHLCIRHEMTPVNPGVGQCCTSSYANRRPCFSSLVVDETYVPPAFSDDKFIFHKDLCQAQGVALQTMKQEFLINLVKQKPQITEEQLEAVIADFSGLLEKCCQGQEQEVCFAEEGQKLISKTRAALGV
In words: phage ELISA, A450 target/A450 IgG1-Fc. The essentials:
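Phage were rescued in 96-well format with VCSM13 helper phage from individual phagemid colonies picked from panning output. Plates were coated with 1.3 microg/ml goat anti-human IgG1-Fc antibody, then 5 nM recombinant human target or IgG1-Fc, then 50 microl phage diluted 5× in ELISA blocking buffer. Binding was detected with HRP-conjugated anti-M13 antibody at 450 nm. The ELISA ratio is target over IgG1-Fc absorbance, averaged across all screened wells holding that clone.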
Background: In an ELISA, binding on a coated surface is turned into a signal by an enzyme label.

For assay [1], the target named is T2, recombinant human CD123-Fc (human, UniProt P26951 19-305).
T2 construct: not shown: Fc part of CD123-Fc
T2 sequence: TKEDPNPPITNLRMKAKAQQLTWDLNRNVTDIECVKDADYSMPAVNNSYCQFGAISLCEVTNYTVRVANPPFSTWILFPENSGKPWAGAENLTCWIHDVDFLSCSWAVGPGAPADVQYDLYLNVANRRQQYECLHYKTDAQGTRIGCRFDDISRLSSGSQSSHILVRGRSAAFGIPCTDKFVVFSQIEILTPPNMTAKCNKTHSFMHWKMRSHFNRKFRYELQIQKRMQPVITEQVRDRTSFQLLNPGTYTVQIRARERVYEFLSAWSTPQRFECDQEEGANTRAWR
In words: phage ELISA, captured CD123-Fc. The method in brief: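 Phage from BCMA panning colonies were rescued with VCSM13 helper phage and diluted 5× in blocking buffer. Plates coated with anti-human IgG1-Fc captured 5 nM target-Fc or IgG1-Fc, and binding was detected with HRP anti-M13. Ratio = A450 target/A450 IgG1-Fc, averaged over the clone's wells.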

B1: SEQ ID NO 744 (designed binder)
chain: MGSWVEFSGRLIAIDNRLWALGGSEAELAAFEKEIAAFESELQAYKGKGNPEVEYLRMWAAEIRYILQAYRHN
B1 returned an ELISA_avg with AFP p26 of 5.28 ratio.

B2: SEQ ID NO 746 (designed binder)
chain: MGSWHEFMERLIAIDGRLWALGGSEAELAAFEKEIAAFESELQAYKGKGNPEVEYLRFVAAFIRDVLQAYRHN
In the assay with AFP p26, B2 yielded an ELISA_avg of 17.9 ratio.

B3: SEQ ID NO 742 (designed binder)
chain: MGSWHEFITRLEAIDQRLWALGGSEAELAAFEKEIAAFESELQAYKGKGNPEVEYLRFWAAEIRFILQAYRHN
For the molecule B3, the ELISA_avg in the assay with AFP p26 is 16.9 ratio.

B4: SEQ ID NO 743 (designed binder)
chain: MGSWMEFFDRLVAIDERLWALGGSEAELAAFEKEIAAFESELQAYKGKGNPEVEYLRMWAAEIRFLLQAYRHN
B4 registered an ELISA_avg with AFP p26 of 18.6 ratio.

B5: SEQ ID NO 745 (designed binder)
chain: MGSWVEFHHRLFAIDERLWALGGSEAELAAFEKEIAAFESELQAYKGKGNPEVEYLRMVAAEIRYILQAYRHN
For B5, the ELISA_avg in the assay with AFP p26 is 21.4 ratio.

B6: SEQ ID NO: 613 (designed binder)
chain: MGSWYEFMGRLEAIDERLQALGGSEAELAWFEHEIAEFEWSLQWYKGKGNPEVEALRFEAGAIPWELWAYRHN
notes: D domain, on phage
Turning to B6, the ELISA_avg in assay [1] came out at 3.5 ratio A450 target/IgG1-Fc.

B7: SEQ ID NO: 622 (designed binder)
chain: MGSWLEFETRLHAIDERLWALGGSEAELAEFEEHIAWFEEDLQFYKGKGNPEVEALDFEADAIGWELWAYRHN
notes: D domain, on phage
Regarding B7, the ELISA_avg in assay [1] turned out to be 4.6 ratio A450 target/IgG1-Fc.

B8: SEQ ID NO: 605 (designed binder)
chain: MGSWEEFNWRLRAIDERLFALGGSEAELAWFEYDIAEFEEQLQVYKGKGNPEVEALRVEAAAIAEELYAYRHN
notes: D domain, on phage
As to B8, in assay [1], the ELISA_avg stood at 5.4 ratio A450 target/IgG1-Fc.

B9: SEQ ID NO: 598 (designed binder)
chain: MGSWYEFDERLDAIFDRLWALGGSEAELAYFEQVIATFEKTLQRYKGKGNPEVEALDTEAKAISWELDAYRHN
notes: D domain, on phage
For the molecule B9, in assay [1], the ELISA_avg was found to be 3 ratio A450 target/IgG1-Fc.

B10: SEQ ID NO: 608 (designed binder)
chain: MGSWYEFVYRLRAIDERLDALGGSEAELAMFEFEIAFFEDQLQRYKGKGNPEVEALVDEAQAIDFELFAYRHN
notes: D domain, on phage
For B10, the ELISA_avg in assay [1] worked out at 4.5 ratio A450 target/IgG1-Fc.

B11: SEQ ID NO: 602 (designed binder)
chain: MGSWFEFNDRLDAISERLSALGGSEAELAYFEWQIAVFEKTLQNYKGKGNPEVEALTLEANAIFEELEAYRHN
notes: D domain, on phage
As for B11, the ELISA_avg in assay [1] is 3.9 ratio A450 target/IgG1-Fc.

B12: SEQ ID NO: 600 (designed binder)
chain: MGSWEEFEDRLWAIDGRLYALGGSEAELAWFEQWIATFEEDLQDYKGKGNPEVEALEYEASAIFEELEAYRHN
notes: D domain, on phage
As to B12, the ELISA_avg in assay [1] was found to be 9.4 ratio A450 target/IgG1-Fc.

B13: SEQ ID NO: 599 (designed binder)
chain: MGSWYEFQERLDAIDSRLWALGGSEAELAWFEYTIAEFEKELQMYKGKGNPEVEALGTEAVAISEELMAYRHN
notes: D domain, on phage
Regarding B13, the ELISA_avg in assay [1] came out at 5.5 ratio A450 target/IgG1-Fc.

B14: SEQ ID NO: 621 (designed binder)
chain: MGSWYEFLARLYAIDERLWALGGSEAELATFEHWIADFEEQLQSYKGKGNPEVEALTDEAVAIGEELSAYRHN
notes: D domain, on phage
Take B14: the ELISA_avg in assay [1] was 4.5 ratio A450 target/IgG1-Fc.

B15: SEQ ID NO: 607 (designed binder)
chain: MGSWYEFEWRLDAIDRRLWALGGSEAELADFEEEIADFEWMLQNYKGKGNPEVEALVDEASAIQTELWAYRHN
notes: D domain, on phage
For the molecule B15, in assay [1], the ELISA_avg is 10 ratio A450 target/IgG1-Fc.

B16: SEQ ID NO: 609 (designed binder)
chain: MGSWWEFEDRLYAIDDRLWALGGSEAELAQFEREIAQFEIWLQEYKGKGNPEVEALDDEATAINSELFAYRHN
notes: D domain, on phage
For B16, in assay [1], the ELISA_avg came to 5.5 ratio A450 target/IgG1-Fc.

B17: SEQ ID NO: 619 (designed binder)
chain: MGSWIEFWNRLEAIEERLYALGGSEAELAYFEDEIAEFEIYLQQYKGKGNPEVEALKHEAEAINKELMAYRHN
notes: D domain, on phage
Take B17: the ELISA_avg in assay [1] was found to be 5.2 ratio A450 target/IgG1-Fc.

B18: SEQ ID NO: 603 (designed binder)
chain: MGSWVEFMDRLEAIEERLSALGGSEAELAFFEWEIAEFEEHLQVYKGKGNPEVEALEWEALAITEELAAYRHN
notes: D domain, on phage
For the molecule B18, the ELISA_avg in assay [1] worked out at 4 ratio A450 target/IgG1-Fc.

B19: SEQ ID NO: 624 (designed binder)
chain: MGSWHEFWQRLEAIEGRLWALGGSEAELADFESLIADFEEQLQEYKGKGNPEVEALMAEAEAIDNELRAYRHN
notes: D domain, on phage
With B19, the ELISA_avg in assay [1] amounted to 7 ratio A450 target/IgG1-Fc.

B20: SEQ ID NO: 610 (designed binder)
chain: MGSWDEFEFRLEAIDSRLWALGGSEAELAVFEYEIAQFEFMLQEYKGKGNPEVEALGMEAWAIENELFAYRHN
notes: D domain, on phage
As for B20, the ELISA_avg in assay [1] amounted to 3.6 ratio A450 target/IgG1-Fc.

B21: SEQ ID NO 747 (designed binder)
chain: MGSWKEFIQRLDAIHYRLWALGGSEAELAAFEKEIAAFESELQAYKGKGNPEVEYLRFVAAFIRFELQAYRHN
Turning to B21, in the assay with AFP p26, the ELISA_avg worked out at 18.4 ratio.

B22: SEQ ID NO: 616 (designed binder)
chain: MGSWWEFKYRLDAICFRLAALGGSEAELASFEDEIAYFEEDLQGYKGKGNPEVEALDYEALAIWDELAAYRHN
notes: D domain, on phage
For B22, the ELISA_avg in assay [1] amounted to 3.1 ratio A450 target/IgG1-Fc.

B23: SEQ ID NO 741 (designed binder)
chain: MGSWHEFYDRLDAIYFRLWALGGSEAELAAFEKEIAAFESELQAYKGKGNPEVELLRLLAAEIRKELQAYRHN
As for B23, the ELISA_avg with AFP p26 was 9.6 ratio.

B24: SEQ ID NO: 615 (designed binder)
chain: MGSWEEFHMRLIAIDERLWALGGSEAELAGFEESIAYFESQLQDYKGKGNPEVEALDYEAHAIWRELYAYRHN
notes: D domain, on phage
On to B24, for which the ELISA_avg in assay [1] was determined as 3.9 ratio A450 target/IgG1-Fc.

B25: SEQ ID NO: 623 (designed binder)
chain: MGSWFEFETRLEAIDLRLWALGGSEAELATFEDVIAFFEDWLQFYKGKGNPEVEALKMEAWAIGEELHAYRHN
notes: D domain, on phage
B25: in assay [1], the ELISA_avg is 6.6 ratio A450 target/IgG1-Fc.

B26: SEQ ID NO: 601 (designed binder)
chain: MGSWFEFGDRLEAIDERLYALGGSEAELAQFEWWIAEFEHHLQDYKGKGNPEVEALEYEADAIWGELHAYRHN
notes: D domain, on phage
As for B26, the ELISA_avg in assay [1] worked out at 4.5 ratio A450 target/IgG1-Fc.

B27: SEQ ID NO: 626 (designed binder)
chain: MGSWYEFENRLFAIEERLWALGGSEAELAWFEYEIANFEWGLQSYKGKGNPEVEALDNEAEAIDIELAAYRHN
notes: D domain, on phage
On to B27, for which, in assay [1], the ELISA_avg was found to be 3.3 ratio A450 target/IgG1-Fc.

B28: SEQ ID NO: 617 (designed binder)
chain: MGSWDEFAMRLEAIQARLFALGGSEAELAIFEDEIAFFETMLQDYKGKGNPEVEALEYEAAAIEAELGAYRHN
notes: D domain, on phage
In the case of B28, in assay [1], the ELISA_avg was 3.7 ratio A450 target/IgG1-Fc.

B29: SEQ ID NO: 614 (designed binder)
chain: MGSWVEFSNRLDAIWERLQALGGSEAELAYFEWEIAEFEWELQSYKGKGNPEVEALNAEADAIEWELEAYRHN
notes: D domain, on phage
With B29, the ELISA_avg in assay [1] came out at 5.1 ratio A450 target/IgG1-Fc.

B30: SEQ ID NO: 611 (designed binder)
chain: MGSWEEFEWRLDAIDERLWALGGSEAELATFEYEIAIFENELQQYKGKGNPEVEALDSEAYAIERELGAYRHN
notes: D domain, on phage
Regarding B30, the ELISA_avg in assay [1] was found to be 4.3 ratio A450 target/IgG1-Fc.

B31: SEQ ID NO: 620 (designed binder)
chain: MGSWNEFVIRLFAIDDRLYALGGSEAELAWFEDEIATFEYELQRYKGKGNPEVEALEYEAEAIVSELFAYRHN
notes: D domain, on phage
Turning to B31, the ELISA_avg in assay [1] was found to be 3.5 ratio A450 target/IgG1-Fc.

B32: SEQ ID NO: 618 (designed binder)
chain: MGSWWEFNARLDAIEDRLMALGGSEAELAYFEDIIASFENILQQYKGKGNPEVEALWYEAYAIEKELNAYRHN
notes: D domain, on phage
In the case of B32, in assay [1], the ELISA_avg worked out at 3.4 ratio A450 target/IgG1-Fc.

B33: SEQ ID NO: 604 (designed binder)
chain: MGSWIEFMDRLWAIDQRLWALGGSEAELAWFEEEIAWFEEELQVYKGKGNPEVEALEWEATAISEELWAYRHN
notes: D domain, on phage
As to B33, in assay [1], the ELISA_avg is 6.5 ratio A450 target/IgG1-Fc.

B34: SEQ ID NO: 606 (designed binder)
chain: MGSWWEFEIRLDAIDERLWALGGSEAELAWFEQSIAFFENDLQVYKGKGNPEVEALRWEANAIIEELFAYRHN
notes: D domain, on phage
Take B34: the ELISA_avg in assay [1] is 3.2 ratio A450 target/IgG1-Fc.

B35: SEQ ID NO: 625 (designed binder)
chain: MGSWYEFEQRLEAIEWRLGALGGSEAELATFEEDIADFEEWLQEYKGKGNPEVEALQYEAYAIAEELHAYRHN
notes: D domain, on phage
Regarding B35, the ELISA_avg in assay [1] amounted to 4.4 ratio A450 target/IgG1-Fc.

B36: SEQ ID NO: 612 (designed binder)
chain: MGSWYEFFDRLDAIDERLWALGGSEAELAWFEAEIAEFEMELQGYKGKGNPEVEALDVEAHAIEMELFAYRHN
notes: D domain, on phage
On to B36, for which the ELISA_avg in assay [1] amounted to 3.7 ratio A450 target/IgG1-Fc.
